Patent US20060183700A1, “Cgrp binding nucleic acids” (NOXXON Pharma AG, published 2006)
Like-named read-outs stand apart in the source and are kept apart here. Blank lines part the entries; values can stand above or below the molecule they belong to. Where no end group is shown, it is not given here.

Experiments:
[1] = molecular target: T1, D-CGRP (biotinylated, all-D alpha-calcitonin gene-related peptide) (Rattus norvegicus) (UniProt P01256); settings: 2'-F pyrimidines
T1 sequence: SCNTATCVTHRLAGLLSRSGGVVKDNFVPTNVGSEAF

[2] = molecular target: T2, alpha-CGRP (L) (Homo sapiens) (UniProt P06881); assay: ITC; settings: L-RNA; 37 C, activity 80%
T2 sequence: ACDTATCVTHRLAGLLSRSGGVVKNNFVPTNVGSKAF

[3] = molecular target: T1, D-CGRP (biotinylated, all-D alpha-calcitonin gene-related peptide) (Rattus norvegicus); assay: SPR; settings: 2'-F pyrimidines; clone shortened by two nucleotides; Biacore and ITC; higher by factor two at 37 C
[4] = molecular target: T1, D-CGRP (biotinylated, all-D alpha-calcitonin gene-related peptide) (Rattus norvegicus); assay: pulldown; settings: 2'-F pyrimidines, bead assay, 37 C, unit uM, probably nM
[5] = molecular target: T3, calcitonin receptor on SK-N-MC cells (human) (UniProt P30988); assay: cell-based or functional assay
T3 sequence (looked up): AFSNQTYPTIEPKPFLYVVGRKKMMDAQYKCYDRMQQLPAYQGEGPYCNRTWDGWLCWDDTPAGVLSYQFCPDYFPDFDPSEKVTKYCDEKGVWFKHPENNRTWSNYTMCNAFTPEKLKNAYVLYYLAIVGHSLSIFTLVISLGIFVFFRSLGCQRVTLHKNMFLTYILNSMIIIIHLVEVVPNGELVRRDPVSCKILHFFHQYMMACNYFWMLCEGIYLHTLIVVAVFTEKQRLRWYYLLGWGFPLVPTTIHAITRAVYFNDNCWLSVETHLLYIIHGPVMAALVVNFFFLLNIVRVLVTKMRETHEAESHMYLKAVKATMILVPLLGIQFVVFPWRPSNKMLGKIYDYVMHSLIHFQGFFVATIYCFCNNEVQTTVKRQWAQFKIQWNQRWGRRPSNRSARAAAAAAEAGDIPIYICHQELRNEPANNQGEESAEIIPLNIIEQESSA

[6] = molecular target: CGRP receptor on SK-N-MC cells; assay: cell-based or functional assay
CGRP (biotinylated) = molecular target: T4, CGRP (biotinylated) (Rattus norvegicus, UniProt P01256 P01256:83-119); assay: SPR; KD in narrow band around G12; settings: protein: synthetic; tags: biotin; synthetic peptide, Jerini
T4 chain: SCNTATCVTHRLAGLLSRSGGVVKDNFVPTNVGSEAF

[7] = molecular target: calcitonin receptor-like receptor (CRLR) on SK-N-MC cells (human) (UniProt Q16602); assay: cell-based or functional assay
[8] = molecular target: CGRP receptor on SK-N-MC cells; assay: cell-based or functional assay; remark: listed apart in the source
[9] = molecular target: T3, calcitonin receptor on SK-N-MC cells (human); assay: cell-based or functional assay; remark: listed apart in the source

calcitonin receptor-like receptor (CRLR) on SK-N-MC cells (human), sequence (Q16602 23-461): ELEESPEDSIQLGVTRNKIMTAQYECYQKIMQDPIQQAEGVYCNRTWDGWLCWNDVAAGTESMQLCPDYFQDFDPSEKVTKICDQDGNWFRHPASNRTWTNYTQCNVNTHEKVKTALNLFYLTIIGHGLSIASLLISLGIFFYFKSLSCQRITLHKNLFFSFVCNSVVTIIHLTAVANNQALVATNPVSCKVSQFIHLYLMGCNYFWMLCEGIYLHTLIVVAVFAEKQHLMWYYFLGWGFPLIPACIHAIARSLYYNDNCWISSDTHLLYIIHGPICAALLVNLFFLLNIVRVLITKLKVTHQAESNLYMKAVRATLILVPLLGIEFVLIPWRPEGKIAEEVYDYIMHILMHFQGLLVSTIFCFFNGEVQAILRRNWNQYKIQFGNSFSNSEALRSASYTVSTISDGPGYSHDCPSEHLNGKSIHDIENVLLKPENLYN

Molecule: CGCAGCCUUCACUGCAGUGACGCACGUAUGAUAGUUUCCAUUUUGGACUCCUGCG [732_045]
Kd [1]: 30000 nM

Molecule: CGCUCAGCCUUCACUGCAGUGACGCACGUAUGAUAGUUUCCAUUUUGGACUCCUGGGCG [732_096]
Kd [1]: 30000 nM

Molecule: GGACUGAUGGCGCGGUCCUAUUACGCCGAGAAGGGAGUGGGGGA [L097 (NOX-504-097) spiegelmer]
Kd [2]: 0.052 µM

Molecule: GGAGCUCAGCCUUCACUGCAGUGACGCACGUAUGAUAGUUUCCAUUUUGGACUCCUGGGCACCACGGUCGGAUCCAC [clone 732]
Kd [3]: 10000 nM
Kd [4]: 23 µM
Kd ([1]; 666 with G20-A21 excised (in analogy to clone 732)): 20000 nM

Molecule: GGAGCUCAGCCUUCACUGCGAAGUGACGCACGUAUGAUAGUUUCCAUUUUGGACUCCUGGGCACCACGGUCGGAUCCAC [clone 666]
Kd ([1]; unit uM, probably misprint for nM, method not specified here (Biacore/ITC in Ex. 1)): 10000 nM

Molecule: GGCAGCCUUCACUGCAGUGACGCACGUAUGAUAGUUUCCAAG / CUUGGACUCCUGCC [732_071a+732_071b]
Kd ([1]; two-strand binder): 100000 nM

Molecule: GGCAGCCUUCACUGCAGUGACGCACGUAUGAUAGUUUCCAUUUUGGACUCCUGCC [732_026]
Kd ([1]; stem shortened to five base pairs, FIG. 7): 30000 nM

Molecule: GGCAGCCUUCCUGCAGGACGCACGUAUGAUAGUUUCCUUUGGACUCCUGCC [732_100]
Kd ([1]; 51mer): 75000 nM

Molecule: GGCAGCCUUCCUGCAGGACGCACGUAUGAUAGUUUGCUUUGCACUCCUGCC [732_104]
Kd [1]: 40000 nM

Molecule: GGCAGCCUUGCUGCAGCACGCACGUAUGAUAGUUUCCUUUGGACUCCUGCC [732_103]
Kd [1]: 20000 nM

Molecule: GGCUCAGCCUUCACUGCAGUGACGCACGUAUGAUAGUUUCCAUUUUGGACUCCUGGGCC [732_029]
Kd [1]: 30000 nM

EC50, cAMP production in SK-N-MC cells [5]: 3 µM
Molecule: human amylin (from UniProt P10997 34-70) (peptide)

EC50, intracellular cAMP in SK-N-MC cells [6]: 1 µM
Molecule: human α-CGRP (from UniProt P06881 83-119) (peptide)

B1: G12a (ssRNA)
RNA: GGAGCUCAGCCUUCACUGCAUCGAGGCAUCCAAGUUAUAGGAAUAGGGUGGCUUGAAGGGCACCACGGUCGGAUCCAG
binding result (CGRP (biotinylated)): binds

B2: G12b (ssRNA)
RNA: GGAGCUCAGCCUUCACUGCAUCGAGGCAUCCAAGUUAUAGGAAUAGGGUGGCUUGAAGGGCACCACGGUCGGAUCCAG
binding result (CGRP (biotinylated)): binds

EC50, cAMP production in SK-N-MC cells [7]: 30 µM
EC50, intracellular cAMP in SK-N-MC cells [7]: 0.03 µM
Molecule: YRQSMNQGSRSTGCRFGTCTMQKLAHQIYQFTDKDKDGMAPRNKISPQGY (peptide, UniProt P43145 94-143, looked up) [rat adrenomedullin]

EC50, intracellular cAMP in SK-N-MC cells [8]: 1 µM
cAMP formation in SK-N-MC cells, half-maximum activation [8]: 1 nM
Molecule: SCNTATCVTHRLAGLLSRSGGVVKDNFVPTNVGSEAF (peptide, UniProt P01256 83-119, looked up, ends and bridges not checked; cysteine pairing not given here) [rat α-CGRP (calcitonin gene-related peptide I, rat)]

EC50, intracellular cAMP in SK-N-MC cells [8]: 1 µM
Molecule: ACNTATCVTHRLAGLLSRSGGMVKSNFVPTNVGSKAF (peptide, UniProt P10092 82-118, looked up, ends and bridges not checked; cysteine pairing not given here) [human β-CGRP (calcitonin gene-related peptide II)]

EC50, cAMP production in SK-N-MC cells [7]: 30 µM
EC50, intracellular cAMP in SK-N-MC cells [7]: 0.03 µM
B3: human adrenomedullin (peptide, UniProt P35318 95-146, looked up)
peptide: YRQSMNNFQGLRSFGCRFGTCTVQKLAHQIYQFTDKDKDNVAPRSKISPQGY

B4: G12f (ssRNA)
RNA: GGAGCUCAGCCUUCACUGCAUCGAGGGCGAUCCAAGUUGUAGGAAUGGGGUGGCUUGGAGGGCACCACGGUCGGAUCCAG
binding result (CGRP (biotinylated)): binds

B5: G12e (ssRNA)
RNA: GGAGCUCAGCCUUCACUGCAUCGAGGCGAUCCAAGUUGUAGGAAUUGGAUGACUUGGAGGGCACCACGGUCGGAUCCAG
binding result (CGRP (biotinylated)): binds

B6: G12g (ssRNA)
RNA: GGAGCUCAGCCUUCACUGCAUCGAAGCGAUCCAAGUUGUAGGAAUGGGGUAGCUUGGAGGGCACCACGGUCGGAUCCAG
binding result (CGRP (biotinylated)): binds

B7: G12c (ssRNA)
RNA: GGAGCUCAGCCUUCACUGCAUCGAGGCGAUCCAAGUUGAGGAAUGGGGUGGCUUGGAGGGCACCACGGUCGGAUCCAG
binding result (CGRP (biotinylated)): binds

EC50, cAMP production in SK-N-MC cells [9]: 1 µM
Molecule: KCNTATCATQRLANFLVRSSNNLGPVLPPTNVGSNTY (peptide, UniProt P12969 38-74, looked up) [rat amylin]

B8: G12d (ssRNA)
RNA: GGAGCUCAGCCUUCACUGCAUCGAAGGCGAUCCAAGUUGUAAGAAUGGGGGUGGCUUGGAGGGCACCACGGUCGGAUCCAG
binding result (CGRP (biotinylated)): binds
